We go through one substance from publication PMC9000915.

The target in this assay is gp41 subunit of ADA.CM.v4 Env on hVLPs (CTD truncated, stop codon at 756) (HIV-1 (subtype B isolate ADA)). The assay can be described thus: cryo-EM structure; cryo-ET with sub-tomogram averaging of Env on purified, AT-2-treated ADA.CM.v4 hVLPs; C3 map 9.13 Å, C1 map 10.67 Å; PDB 6ULC fitted as rigid body.

In turn, “gp41 subunit of ADA.CM.v4 Env on hVLPs (CTD truncated, stop codon at 756) (natural protein)” displayed a stoichiometry N of 3.

Usually stoichiometry N stands for a count of units in the complex or per binding partner.
